Laboratory results: the supplement of paper PMC12042874
± gives the uncertainty stated by the source.

Experiment: amyloid nucleation score (Sup35N fusion, yeast selection) (log enrichment); library NNK3; higher = more nucleation; inactive = no reads after selection
In short: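 The nucleation score is a DiMSum log enrichment of output over input reads, centred on the mode score of non-aggregating sequences. Sequences under 100 input reads were excluded, and reads came from Illumina sequencing of plasmid inserts. Psi-negative yeast expressing Sup35N fused to peptides of 20 random codons were induced with 100 μM copper sulfate for 24 hours and grown 7 days at 30°C on medium lacking adenine and uracil. Random libraries had three technical output replicates.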

Substance	amyloid nucleation score
FDACRFHVHLRYLFNNRYMG	inactive
CNSETRAFYYLALWVLFFFN	inactive
RRLCRYCDVILRNFMHKIQW	inactive
RRCNVMLKNDLNCLPSSLFI	0.322 ± 0.62
WVCIW	0.178 ± 0.72
PSLRRTSLGSLKSSMANSWQ	inactive
ANAISWGYLIKDYS	inactive
PGDFISDEAMDSNVYFRLQS	-0.693 ± 0.8
DAETPLHSFGMQLLGRASMR	inactive
VLIMPA	inactive
LLLSDFVSLLESPRVLHAQW	inactive
QWFAWARQWL	inactive
YCAALGSSY	inactive
ATTVNGFIISHRVYNAGSWY	1.28 ± 0.1
LIRAVGFGGWILIAHWYIWN	inactive
PNGLKTGGETRGRFYKCYMY	inactive
LLDYRPKTGNCRVQIRLCVV	inactive
CSPSFDVYPMV	inactive
IALKSGMVCRYRYHIGGRIS	inactive
LCAYNSTWSACNWGFIHNSL	2.58 ± 0.051
IGSPSHLYKYHCVGFRVSSQ	inactive
KREAFNQALADNHQLQMLYE	0.615 ± 0.12
WALTRLRAPPF	inactive
MWITIS	inactive

Substance	amyloid nucleation score
VVCFLYIRSYNQGLCRSYFR	2.29 ± 0.091
SLLYYFWTNPGAFSKYIYSM	inactive
TRHLMLVLSWFLHRKNISRG	inactive
NIRICWG	0.795 ± 0.27
GVLCMWHLCFDVCDGKIIGG	1.74 ± 0.078
CLDPRGRNRAGPAVIGGPSV	inactive
THISQNLQSVVHLYVLRKVV	inactive
HRYASVGSTYWGYKVDLLWC	inactive
NCGSYSKSDN	inactive
VFVFLPSWDISYDDPRGWSV	0.241 ± 0.19
NHFFALSLVII	inactive
CSTFNFRGNTIHLNLCWEVI	0.424 ± 0.71
KCSFFMFAVEKEAKNWMVTN	inactive
YVIVYS	inactive
LDAYDSLLFL	inactive
TKSRIWG	inactive
NRNFYGL	inactive
NWSSRFMTT	inactive
WVCLWVIVLYHIPVLNKLLS	inactive
RAFLL	inactive
ECAYWMILLGLDYNGHPNRP	inactive
RLSIAASFLSLFRYVDFNSL	inactive
TGRAFIIPVHAFRYDSVVGV	inactive
FTRNCSKWIVG	inactive

Substance	amyloid nucleation score
IVFEMLPWPVG	-0.435 ± 1.9
GRRRIRNCVSRACLMYIQHV	0.434 ± 0.23
WWMYSALGMYTDHEFACDVA	inactive
ANVDTIDFASAVILF	inactive
PRSEVTRTLYIFSVWHQMRI	inactive
ISFSLH	inactive
DLYQPDS	inactive
SLSYSSLCSALMWVHVKSYD	inactive
SRMDNSDTIYNILLWTSSYS	inactive
RYRIPTSFL	inactive
SLLVLETDGCFPVAPLAGDS	-0.926 ± 1.1
AENINCKMM	1.45 ± 0.12
LFYIPFCMSFWTSKDRNA	inactive
NLSSVSIVALLQRVPIYKYL	inactive
IVCCGSGSEEVGKLSGRIKN	inactive
SVRRYRSYLVLRRRTGHDRN	inactive
NHCNTCSWFLQTS	1.45 ± 0.14
AVCWLRMTYGLRLEVGSPVD	inactive
LVVLLRFCGRAPGIGQSMGD	inactive
IIASDLSLSVVNVFN	0.341 ± 0.31
NIIDKW	-0.357 ± 1.4
VYCPELLSRCGQVGSTCCDR	inactive
LFIFNGCAM	2.31 ± 0.057
WGNLCQSGALCCQEGC	inactive

Substance	amyloid nucleation score
PFSWCFICKSL	inactive
ICDDMVGVC	inactive
VGVNWTFPMPLSTL	inactive
NFLSALIYILMAYDRDFVYR	inactive
SFGFALLGVVMRITAVRYPY	inactive
VVLAMTHSYRNFKMFRDHYH	0.957 ± 0.12
VLRRLGWICL	inactive
GPNRYW	inactive
VRYVSFAEFSWGLRFSVSRR	inactive
RYTFVGT	-0.408 ± 0.68
KRECYMIIHI	inactive
CVLRAFATVKHFTSGLCSCG	inactive
CLRVLWLSQLTVSCDF	-0.354 ± 1.8
VGSLDVIVINQKFSVFVMSC	inactive
FVYWLILYLRRVAERR	inactive
ESSFSGLYYDSAM	inactive
GFYNFVFSCASGYRCTGVMG	-0.357 ± 0.59
YLVTWWMLSHKLTHMCFSGR	-0.024 ± 0.69
TSYNCCVVHSVRTAIFARG	inactive
EQYRSTTGLESL	-0.2 ± 0.96
RCVLSNSNLCFKFFRVQTME	inactive
SNQTWMVNET	inactive
PRNFFLRVMHY	inactive
TCWCGVRIFFGPQLASSVWL	inactive

Substance	amyloid nucleation score
FRSVSLWSSN	inactive
WYAKWKVN	inactive
PQDRFSE	1.29 ± 0.14
LINVELYLPGLRRIWAPSSG	0.221 ± 0.54
GIGILEVWVSVRYGSWFKRI	inactive
NVINSMGLSKQIIPSQVQSS	inactive
PNKDSLWDPFKQQSRSEK	-0.455 ± 0.93
EGFWMNAPGGRISYSINWIA	inactive
HKEVMKNLCIFYPTDEMYRV	inactive
IGLSSHISWYE	inactive
FIMMRIMSFPISHVCV	0.708 ± 0.27
EPRRLRITCEYTVNRRLSDE	inactive
IINLQSWQHLLNRHGTELSV	inactive
VDLAIMLVDLLGHSKMYQTG	inactive
YRSNEFISD	inactive
CAESIRHRRP	inactive
ASFYWECMYVHGDVFLCVWY	1.79 ± 0.1
DHCRNKQCVPTWDAYLEQ	-0.339 ± 0.52
PQHLFST	inactive
YVFGKLSAFFFVRFNLQGLL	inactive
GVSRLETGNFAASPMMHYKG	inactive
IERLTCIYRSFESHLAGFVG	inactive
GNSNTMSVLRCFLNPFPLVW	inactive
INGSGSAIYGRITRGLNGDS	inactive

Substance	amyloid nucleation score
YSVLLCVALRLVNNVA	inactive
LNSFFAAIHILMGHFKRILS	inactive
ISPGRAGQVVSLAGHSYQAL	inactive
SFSMKKGQHQLIS	inactive
KMKSAIIPVECGSR	inactive
FDFTGYLKCLKCTSSCTMVL	inactive
LFYGNW	inactive
AKCMSDFVECRKSRRMMAGW	inactive
HKRTTNIPFRFSNLC	inactive
MSMDHLMTYLRLATQVALRS	inactive
PGRLSYLPHMFKYLLLITYT	inactive
ITIFDRMNH	inactive
GDEVHGFIVVQSREAFSRKL	inactive
SVMMVMEEFFQWGLKVNMRT	-0.078 ± 0.54
ILDTEHYLMYKVSPAVASLS	inactive
RGAIIFGKTMIYDSC	inactive
RCLTEA	inactive
FKAMLD	inactive
PSNYWNEFYFCSSIHSCGE	3.28 ± 0.07
TSLVFLLGLSMFM	inactive
IDAYPVWELITLFLFGLMLY	inactive
QLEYNYCDKLVT	inactive
SVFRDSRPLLYDVNMVNGGG	inactive
GPHIVRYERTFNG	inactive

Substance	amyloid nucleation score
DVRKRSFIYVCNRSLVVPFR	inactive
NIWRMYEIRSVSGKKLRVDI	inactive
NLTRGYISRKRMSCPQ	inactive
TFLKGSLFCCYYTRDAVDYI	2.64 ± 0.054
YRPSIRLTGCLSSLYTLFYG	1.92 ± 0.062
SSKASSFVFMACGPGTEVIG	inactive
HNNYHYIVRSFVGI	1.01 ± 0.28
LLRGVRKE	inactive
LSLVDEFQSPLLQLLFVQVA	inactive
FNLGRVMFLRSLRWCQGLLV	inactive
VFAISV	inactive
KRLHTS	inactive
FGVVDYARRSWGYGSCGGHV	inactive
EALTLTARR	inactive
AVNPRQFKFTVDEKSIGRVA	inactive
DEMPRVSMRVNNMPGCDNDE	inactive
FTHAIPVYDEVPNHDICDGS	inactive
IKFSYKCS	inactive
